In patent US20250026813A1 (published 2025):

Tests used:
[1] = molecular target: T1, RBD domain of the spike protein of SARS-CoV-2 virus (Acro Biosystems SPD-C52H3) (SARS-CoV-2, UniProt P0DTC2 319-537); test: Affinity (SPR) by Octet; antigen not named, taken from the epitope column
T1 construct: domain: RBD domain

[2] = molecular target: T2, S2 subunit of the SARS-CoV-2 spike protein (Sino Biological 40590-V08B), His tag (SARS-CoV-2, UniProt P0DTC2 686-1213)
T2 construct: domain: S2 subunit

Binder | Kd [1] | HTRF deltaF [2]
YANG-1102 (antibody, V domains shown) VH: QVQLQESGPGLVKPSGTLSLTCAVSGGSISTTNWWSWVRQSPGRGLEWIGEIFHIGYTNYNPSLKSRVTISVDKSKNQFSLKLNSVTVADTAVYYCARRVVMDTAMAHFDCWGQGTLVTVSS VL: QSVLTQPPSVSGAPGQRVTISCTGSSSNIGAGYDVHWYQHLPGTAPKLLIYININRPSGVPDRFSGSKSGTSASLVIAGLQAEDGADYYCQSYDSSLSGWVFGGGTRLTVL | < 0.1 nM | –
IMPI-055 (antibody, V domains shown) VH: QVQLVQSGAEVKKPGASVKVSCKASGYTFTSYDINWVRQATGQGLEWMGWMNPNSGNTGYAQKFQGRVTMTRDTSINTAYMELSSLRSEDTAVYFCARGGRYCSDVTCYSGEPFDYWGQGTLVTVSS VL: EIMLTQSPDFQSVTPKEKVTITCRASQSIGSSLHWYQQKPDQSPKLLIKFASQSISGVPSRFSGSGSGTDFTLTINSLEAEDAAAYYCHQSSSLPHTFGPGTKVEIK | – | -10.3 deltaF
YANG-1101 (antibody, V domains shown) VH: QLQLQESGPGLVKPSETLSLTCTVSGGSISSSSYYWGWIRQPPGKGLEWIGSIYYSGSIYYNPSLKSRVTISVDTSKNQFSLKLSSVTAADTAVYYCASWFGEFLKADAFDIWGQGTMVTVSS VL: QSALTQPASVSGSPGQSITISCTGTSSDVGGYSYVSWYQQHPGKAPKLMIYDVSKRPSGVSNRFSGSKSGNTASLTISGLQAEDEADYYCCSYAGGSTFVVFGGGTKLTVL | < 0.1 nM | –
IMPI-032 (antibody, V domains shown) VH: QVQLQESGPGLVKPSGTLSLTCAVSGGSISSNKWWSWVRQPPGKGLEWIGEIDHSGSTMYNPSLKSRVTISVDKSKNQFSLKLNSVTAADTAVYYCTGEGYNWNYWGQGTRVTVSS VL: DVVMTQSPLSLPVTLGQTASISCRSSQSLLYTDGNTYLSWFQQRPGQSPRRLIYKVSKWESGVPDRFSGSGSGTDFTLKISRVEAEDVGIYYCMQGTHWPLTFGGGTKVEIK | – | -8 deltaF
IMPI-006 (antibody, V domains shown) VH: QLQLQESGPGLVKPSETLSLTCTVSGGSISNSNYYWGWIRQPPGKGLEWIGSIYYSGRTYYNPSLKSRVTISVDTSKNQFSLKLSSVTAADTAVYYCARMGLLWFGEFYGMDVWGQGTTVTVSS VL: DIQMTQSPSSLSASVGDRVTITCRASQGISSWLAWYQQKPEKAPKSLIYDASSLQRGVPSRFSGSGSGTDFTLTISSLQPEDFASYYCQQYNSYPLTFGGGTRVEIK | – | 40.7 deltaF
IMPI-059 (antibody, V domains shown) VH: EVQLVESGGGLIQPGGSLRLSCAASGFTVSSIYMSWVRQAPGKGLEWVSIIYSRGSTDYADSVKGRFTISRDISKNTLYLQMNSLRAEDTAVYYCARDGTMVRGVHAFDIWGQGTMVTVSS VL: DIQMTQSPPSLSASIGDRVTITCQASQDISNYLNWYQQKPGKAPKLLIYDASNLETGVPSRFSGSGSGTDFTLTISNLQPEDIVTYYCQQYDNLPSSFGQGTKLEIK | – | -2.7 deltaF
YANG-1108 (antibody, V domains shown) VH: QVQLVESGGGVVHPGRSLRLSCVVSGFTFSGYGMYWVRQAPGKGLEWVAVISKDGSDKYYADSVKGRFTISRDNSKNTLNLQMNSLRAEDTAVFYCAKERTFQGSGSYYNNYFYYGMDVWGQGTTVTVSS VL: AIQLTQSPSSLSASVGDRVTITCRASQGISSALAWYQQKPGKAPNLLIYDASSLESGVPSRFSGSGFGTDFTLTINSLQPEDFASYYCQQFKSYPLTFGGGTKVEIK | < 0.1 nM | –
IMPI-027 (antibody, V domains shown) VH: QVQLQESGPGLVKPSQTLSLTCTVSGGSISSYGYYWNWIRQHPGKGLEWIGYIYYSGSTYYNPSLKSRVTISVDTSKNQLSLRLNSVSAADTAVYYCARDFGGNSNYFDYWGQGTLVTVSS VL: AIQLTQSPSSLSASVGDRVTITCRTSQGISSALAWYQQKPGKAPKLLIYDASSLESGVPSRFSGSGSGTDFTLTISSLQPEDFATYYCQQFNSYPLTFGGGTKVEIK | – | 7.5 deltaF
IMPI-022 (antibody, V domains shown) VH: EVQLVESGGGLVQPGRSLRLSCAASGFTFDDYAMHWVRQAPGKGLEWVSGITWNSGSIGYADSVKGRFTISRDNAKNSLYLHMNSLRVEDTALYYCAKDLQGDYYYYGVDVWGQGTTVTVSS VL: AIQLTQSPSSLSASVGDRVTITCRASQGISSALAWYQQKPGKAPKLLLYDASSLVSGVPSRFSGSRSGTDFTLTISSLQPEDFATYYCQQFISYPLTFGGGTRVEIK | – | -9.7 deltaF
IMPI-033 (antibody, V domains shown) VH: QVQLQESGPGLVKPSQTLSLTCTVSGGSISSYGYYWSWIRQHPGKGLEWIGYIYYSGSTYYNPSLKSRVTMSVDTSKNQLSLRLNSVSAADTAVYYCARDFGGNSNYFDYWGQGTLVTVSS VL: AIQLTQSPSSLSASVGDRVTITCRASQGISSALAWYQQKPGKAPNLLIYDASSLESGVPSRFSGSGSGTDFTLTISSLQPEDFATYYCQQFNSSPLTFGGGTKVEIK | – | -3.6 deltaF
YANG-1103 (antibody, V domains shown) VH: EVQMVESGGGLIQPGGSLRLSCAASGLTVSSNYMSWVRQAPGKGLEWVSVIYSGGSTFYADSVKDRFTISRDNSKNTLYLQMNSLRAEDTAVYYCARENWNYVFDCWGQGTLVTVSS VL: DIQLTQSPSFLSASVGDRVTITCWASQGISSYLAWYQQKPGKAPKLLIYAASTLQSGVPSRFSGSGSGTEFTLTISSLQPEDFATYYCQQLNSHPIIFGQGTRLEIK | < 0.1 nM | –
IMPI-017 (antibody, V domains shown) VH: EVQLVESGGGLIQPGGSLRLSCAAAGLTVSSNYMNWVRQVPGKGLEWVSVIYSGGSTYYADSVKGRFTISRDNSKNTLYLQMNSLRAEDTAVYYCARDLGTLGMDVWGQGTTVTVSS VL: DIQLTQSPSFLSASVGDRVTITCWASQGISTYLAWYQQKPGKAPKLLIYAASTLQSGVPSRFSGSGSGTEFTLTISSLQPEDFATYYCQQLNSYLPTFGQGTKVEIK | – | 13 deltaF
YANG-1105 (antibody, V domains shown) VH: EVQVVESGGGLIQPGGSLRLSCAASGITVSRNYMNWVRQAPGKGLEWVSVIYSGGSTFYADSVKGRFTISRDNSKNTLYLQMNSLRADDTGVYYCAREGYGMDVWGQGTTVTVSS VL: DIQLTQSPSFLSASVGDRVTITCWASQGISSYLAWYQQKPGKAPKLLIYSASTLQSGVPSRFSGSGSGTEFTLTINSLQPEDFATYYCQQLNSHPCSFGQGTKLEIK | < 0.1 nM | –
IMPI-037 (antibody, V domains shown) VH: not shown VL: DIQLTQSPSFLSASVGDRVTITCWASQGINSYLAWYQQKPGKAPKLLIYAASTLQSGVPSRFSGSGSGTEFTLTISSLQPEDFTTYYCQQFNDYPRTFGPGTKVEIK | – | -2 deltaF
YANG-1107 (antibody, V domains shown) VH: EVQMVESGGGLIQSGGSLRLSCAASGLSVSSNYMSWVRQAPGKGLEWVAVIYSGGSIFYADSVKDRFTISRDNSKNTLYLQMNSLRAEDTAVYYCARENWNYVFDCWGQGTLVTVSS VL: DIQLTQSPSFLSASVGDRVTITCWASQGISTYLAWYQQKPGKAPKLLIYAASTLQSGVPSRFSGSGSGTEFTLTISSLQPEDFATYYCQQLSSHPIIFGQGTRLEIK | < 0.1 nM | –
YANG-1106 (antibody, V domains shown) VH: EVQLVESGGGLIQPGGSLRLSCAASEFIVSRNYMSWVRQAPGKGLEWVSVIYSGGSTFYADSVRGRFTISRDNSKNTLYLQMNSLRAEDTAVYYCARDYGDQYFDYWGQGTLVTVSS VL: EMVMTQSPATLSVSPGEKATLSCRASQTVSTNLAWYQQKPGQSPRLLIYGASTRATGIPARFSGSGSGTEFTLTISSLQSEDFAIYYCQQYVDWPRTFGQGTTVEIK | < 0.1 nM | –
